The record followed here is the DeepSol protein solubility set.

This data set in a line: soluble on expression in E. coli; label from the status in PepcDB or PDB records.
Turning to “MSASSSSALPPLVPALYRWKSTGSSGRQVQRRCVGAEAIVGLEEKNRRALYDLYIATSLRNIAPASTLLTLQNLKEMFELALLDARFEHPECACTVSWDDEVPAIITYESPESNESARDWARGCIHVQPTAKSALDLWSEMEEGRAAANDNTPSKSIELFLLSDVSTDSTPIPQDATVEILFHSNHLFWDGIGCRKFVGDLFRLVGSYIGRSDSREMKKIQWGQEIKNLSPPVVDSLKLDINTLGSEFDDKCTEYTSALVANYKSRGMKFQPGLALPRCVIHKLSADESIDIVKAVKTRLGPGFTISHLTQAAIVLALLDHLKPNDLSDDEVFISPTSVDGRRWLREDIASNFYAMCQTAAVVRIENLKSITVSHKDEKELQVRALESACRNIKKSYRQWLENPFLQALGLRVHNFEASYLHAKPIPFEGEANPLFISDGINERFIPHEIKQTATGENVLSVESIDFVVNQSLPYLAIRLDSWRDASTLNIIYNDANYTEAEVQKYLQSIVEFMLAFRL”, the “soluble on expression in E. coli” value was “soluble”.

Take “SREEMSLGCQEAFEIFKRDHADSVTIDDNKQILKQRFSEAKALGESINEARSKIGHLKEEITQRHIQQVALGISENMAVPLMPDQQEEKLRSQLEEEKRRYKTMFTRLKALKVEIEHLQLLMDKAKVKLQKEFEVWWAEEATNLQVNSPAVNSLDHTKPFLQTSDSQHEWSQLLSNKSSGGWEVQDQGTGRFDVCDVNARKILPSPCPSPHSQKQSSTSTPLEDSIPKRPVSSIPLTGDSQTDSDIIAFIKARQSILQKQCLGSN”: the “soluble on expression in E. coli” value is reported as “soluble”.

Take “MGSDKIHHHHHHMTLRISQLAQKFGLSRSTLLYYEKQGLIRGRRLDNGYRVYSENDLQRLILIQKLQAGGLTLKECLACLDARIDKALLQTRLAELDADIAQKQASRTLLAALLGEGDLKAWHESLTKEAPEAHLDWLQTQGFSEKEALHLTWLSKDMNEHDKFMADFMQIFSPLTRWAPGSEADTLKALASVPLTPTRILDIGCGKGLATRMLAKHTKASITAIDNEEDALTELQQHLQHRNLASRVSTLCASMTDIPLPAASADLIWAEGSAYIMGVEQALKSWRKLLVDNGVLVLSDLVWLTDDKAPEAVAFWQQDYPAMTSVEARMAQMQAAGFEVIDSFSLSNEAWKSFTGPLAARVDEVSEQLAGSQALANVQRELGIFSRFLGQFGYQFFVLQKRG”: the “soluble on expression in E. coli” value is “not soluble”.

For “MGSDKIHHHHHHMKGMDIMNSAMILEISWFQEHGIMRRAVNRGLARKSSHPSRIGIDEKYYGKHHRYITLVFNHDDHSVEFISLDRKQESLDLYYRSIGEEASGSIEAAPMDMWDPFIVSTKSNVTDAESKIVFDRFHVMKHMNMALDDVRWMESRMAEYKEMFRKTRCLWLYSPENLPDKYGERYEILKESDLKTARVYAIKENLRNLWNCSGEDEARSF”, the “soluble on expression in E. coli” value is recorded as “not soluble”.

With “MGSDKIHHHHHHMSKIKRGVSLYSFQEELFLGRMNVEDCVSFAASIGATGIEILPEQNMPTFPNLSDAQVEEWKAMVARHGCHFTAYDMFLDTKLRKDRLMSDDEQVESIVRDLRLCNRLGIRNMRVLVFVRPDILGRCVPYAEELDVHMGVEVHAPWHLEHAWILRTIEEADRLGTKHLGILPDMGIFMKHYPPAFRARFERQGARPEVTQFIVDQHEAKIMAEYTIYEVAVKMGGNKAEVAMAETLRHAPYANPKRIADYAPYFHHIQAKFYEMDEDCTDPSIAYDEVIDALVGCGWEGTLSSEYEGNRWIQDVHEVDSREQVRRQHVMFERLIVQSEARHAGKEAALCSTST”, the “soluble on expression in E. coli” value is “not soluble”.

Take “MGSDKIHHHHHHMDRIIEKLDHGWWVVSHEQKLWLPKGELPYGERANFDLVGQRALQIGEWQGEPVWLVQQQRRHDMGSVRQVIDLDVGLFQLAGRGVQLAEFYRSHKYCGYCGHEMYPSKTEWAMLCSHCRERYYPQIAPCIIVAIRRDDSILLAQHTRHRNGVHTVLAGFVEVGETLEQAVAREVMEESGIKVKNLRYVTSQPWPFPQSLMTAFMAEYDSGDIVIDPKELLEANWYRYDDLPLLPPPGTVARRLIEDTVAMCRAEYE”: the “soluble on expression in E. coli” value was “not soluble”.

On to “PSLALYVDASGKIKYINEYFLEICRFKSADEATGRSPSELLDTSSRRTLAEKVMETGEGIYNVEKSIKFKALDKPLFTVLSAVPVKDETGTIAGSLMVITDMT”, for which the “soluble on expression in E. coli” value is reported as “not soluble”.

Turning to “MHYSDHFHKVCIASELNEFTDAFRIIYSWLFSLKLLEPKFMDKDSIFCRLFTSIHFRLKYIAAPHYEERKRHLETLEKDGVPKAYIREYAEQQLNVIKQFKLEQKPIGHSFSTDEIIDAARCFGELSNGISVRSRYQRFRAVCMSWFSFMEVITGKDKSYPGSNYVDMFCEWHLTSKGSSVGATVHICQELDRFFAYINSKSVTINLLTAACIDGYIETYQSACFARKTVASKVSILRTFLRYLYNRSIIKTDMSSYLISPRIYTCEILSVSPNENDLNRISHFYDGNTPSAIRNKAILLLLIEYGMRSGGSYRFKT”, the “soluble on expression in E. coli” value is on record as “not soluble”.

Take “MSLRRFKFQYKETIVTILTENEEFYKTAVKAILEARSEIEDYILHNPDFFTSYEPIECSGGEIINRMCNAAKIAGVGPMAAVAGTIAAYAVEKMIDAGAKLAVVDNGGDIVIHSDRELLVGIYPSKLAFKVPPVDYLAICTSSGKIGHSVSFGKADAATVVARDASVADALATALGNLIGDFGKKELEKTVSEFYGKYSDFVEGILVVKDELVALAGNLPSLAFAESKEDLITKGEGHHHHHH”: the “soluble on expression in E. coli” value is recorded as “soluble”.

For “MMAEFETVNDVKQLNGLALAYIGDAVYEVYVRRHLLAGGSVRPHELHRRAVRYVSARAQARVILALLDEGVLTEEEKDIVRRGRNAKSGTIPKNTDVQTYRHSTAFEALIGYHFLVNNEKRVDELIGRSFAIIEREERALE”, the “soluble on expression in E. coli” value was “not soluble”.

On to “MSLTASYETIKARLDGTVLSATFNAPPMNLIGPEVVRDLVALLEELAHPTAPRVVIFDSADADFFFPHVDMTKVPEYTAEAAKAGGPGDASLGMLFRKLSQLPAVTIAKLRGRARGAGSEFLLACDMRFASRENAILGQPEVGIGAPPGAGAIQHLTRLLGRGRALEAVLTSSDFDADLAERYGWVNRAVPDAELDEFVAGIAARMSGFPRDALIAAKSAINAISLPAPAEVRADAALFQQLVRGEKVQQRTAELFKQGFQTRGATELDLGDALGHLKAVDEGHHHHHH”, for which the “soluble on expression in E. coli” value is reported as “soluble”.

As for “MAEVVNISKSASFSKQEKEFSDFQKSKESNEKILNKESNRFTLHPIMYPEVWNFYKKAEASFWTAEEIDLSSDLKDFEKLNVNEKHFIKHVLAFFAASDGIVLENLASKFLREVEIIEAKKFYSFQIAVENIHSETYSLLIDNYIKDEKERLNLFHAIENIPAIKNKALWAAKWINDTNSFAERIVANACVEGILFSGSFCAIFWFKKQNKLHGLTFSNELISRDEGLHTDFNCLIYSLLENKLPENVVQNIVKEAVEVERSFICESLPCDLIGMNSRLMSQYIEFVADRLLECLGCSKVFHSKNPFNWMDLISLQGKTNFFEKRVADYQKSGVMAQRKEQVFSLNTDF”, the “soluble on expression in E. coli” value was “soluble”.

For the sequence “MNRPSGRAADQLRPIRITRHYTKHAEGSVLVEFGDTKVICTVSAESGVPRFLKGQGQGWLTAEYGMLPRSTGERNQREASRGKQGGRTLEIQRLIGRSLRAALDLSKLGENTLYIDCDVIQADGGTRTASITGATVALIDALAVLKKRGALKGNPLKQMVAAVSVGIYQGVPVLDLDYLEDSAAETDLNVVMTDAGGFIEVQGTAEGAPFRPAELNAMLELAQQGMQELFELQRAALAE”, the “soluble on expression in E. coli” value is given as “soluble”.

Regarding “MPVYFTKRAFLPDGWAADVQIAVDELGDIQRISTGSSSSGCQVLSGPVLPGMPNLHSHAFQRMMSGLAEVAGDPQDSFWTWRDLMYRLVQQLTPEQVGVIARQLYIEMLKGGYTQVAEFHYLHHSPDGSPYNDIGEMTAQLSQAAQDAGIGMTLLPVLYSYAGFGAQPAQQGQSRFIQDTESYLRQQQVIRRQLANQPLQNQGLCFHSLRAVELSQMQQILHVSDKQLPVHIHIAEQQKEVNDCLAWCGQRPVAWLYGHLPVDSRWCLVHATHLDTSELVMLANSQAVAGLCPTTEANLGDGIFPGVDYIHHQGRWGIGSDSHVSLDVVEELRWLEYGQRLRDQRRNRLTCERQPAVADLLYSQALAGGRQACGRQISQLAVGYRADWLVLDGDDPYIAGTRSASLLNRWLFAGGKSQIRDVYVAGKAVIVDRYHPLQQQTAQAFLAVLKACQQEV”, the “soluble on expression in E. coli” value is on record as “not soluble”.

With “ARGVKGHVRVLANTTAMTEFMPAVLARYLAAHPDVNVELRERLSYLVVRAVADGSADIGVVAGCAPDQKLQFIPYRKDRLVVVTPAGHRLAAEESVAFADTLADDYVGLSEWSAIHPFLVQAAASLGRTFKFRVEVGNFEAVCRMIESG”, the “soluble on expression in E. coli” value was “not soluble”.

“MKELRRFHLDHDFKIRDWVVVLNEIVVSRWDEVRREKVYRIGFQEFDCSDGWDIEREDGTIATVVFVKSSFDFFVWSK”: the “soluble on expression in E. coli” value was “not soluble”.

“MGHHHHHHSHMGFGSDLKNSHEAVLKLQDWELRLLETVKKFMALRIKSDKEYASTLQNLCNQVDKESTVQMNYVSNVSKSWLLMIQQTEQLSRIMKTHAEDLNSGPLHRLTMMIKDKQQVKKSYIGVHQQIEAEMIKVTKTELEKLKCSYRQLIKEMNSAKEKYKEALAKG”: the “soluble on expression in E. coli” value is “soluble”.

Consider “MLLVMRAKQGKKTPKRKSQGVGNTQGQTPGSNDSDWVDQIGQSVSDGTQPDWSWNESAETASAAVSAQEVDPLTEYQVYKQFGYQGKAAESLAAYLDGIPDGEAKPENLIRELLDINLEVGDVDVLADNLQKYGKLILSELLAKYIEQALQRDSNHLRIRVLAEEGLGWGTQEIEKRAEGGSATAASASPPPDAGGKAYEAEEIKRIPIVRGKKDVSGISQEEIGAIAGLVRADQGAKILKDKVSYETASKQYDRAIQTSEKPANLIIDALKLDYQHADIDRFAGHLWKLYQTLGNYGRQVKERMLGWGYSLGYHEVFDDLEKGPNDRQIKDIGMGHGYLPKNIQKFKSQHRDLVLQDSSLINTGSSPADDAVKEVESLLMYGQIEAAMDVLEQAVLKYPDESQLYITLIDIYERTEDWDRLGQFLRVLRERADRLPEEVVMLMSRLLQRMNQNIKKIKRYGK”, for which the “soluble on expression in E. coli” value is “not soluble”.

Turning to “MKFGPASPKDAIGGVTVHTLRQGPLVLKKGTTIGPAEVEALERAGIKDVVVVRMEEGDVSEDVAAASIALAVGGEGIHVERAFTGRANLFAARPGVLVIDRAAVDRINNIDEAITFATLTAYKPVVEGEMVGTVKIIPFGVEGALRDAAVKAAGRDVLKIAPYAIKRVGVVSTLLPGLSSKVIDKTLRVTAERLAPSGAGIIAERRVQHDEHALSAAIKELLALGAELVIVFGASAIADRRDVIPAAVTGIGGEIEHFGMPVDPGNLLLIARAEGVPVLGAPGCARSPVENGFDWVLMRLLAGIKVTRAELMGMGVGGLLMEIVTRPQPRARPEIEGNSQVAAIVLAAGRSTRMGGPNKLLAELDGKKLVRIATEQALASKASEVIVVTGHQTELVEQALQGLKVKFARNPDFAGGIASSVKAGIAAVPEACDGAVVCLGDMPLIDAGLIDRLIDSFAPDRGNLIVVPVSEGRRGNPVLWSRRFFRELMTLDGDVGARHLIAKHTEAVAEVPVDGEGAFLDIDTPQALEAARRGLEHHHHHH”, the “soluble on expression in E. coli” value is “not soluble”.

On to “SEEDRRLWMEAMDGREPVYNSNKDNQSEGTAQLDSIGFSIIKKCIHAVETRGINEQGLYRIVGVNSRVQKLLSILMDPKTATETETEICAEWEIKTITSALKTYLRMLPGPLMMYQFQRSFIKAAKLENQESRVSEIHSLVHRLPEKNRQMLHLLMNHLAKVADNHKQNLMTVANLGVVFGPTLLRPQEETVAAIMDIKFQNIVIEILIENHEKIFNTVPETPPSNSQLLL”, for which the “soluble on expression in E. coli” value is on record as “soluble”.

In the case of “MGSDKIHHHHHHMKYRTVFDIIGPVMIGPSSSHTAGAARIGRVARTLFGQQPERCDIYFYGSFAETYKGHGTDVAIVGGILDFDTFDPRIPRSLQLAKEKGVRVYFHEEEAITDHPNTAKVVLQKGEDQLEVVGVSIGGGKIEIVELNGFHLKLSGNHPAILVVHTDRFGVIASVSNMLAKHEINIGHMEVSRKEKGKEALMVIEVDQNVDDLLLQELERLPNIVTVTKIHD”, the “soluble on expression in E. coli” value was “not soluble”.
